Test results taken from the supplement of paper PMC10567573.

B1: PSD2 (parent)
chain: PLMGETQERERVLTHFSRRYCQCN

Variants of: B1
Experiment: protein stability index of a GFP-peptide fusion (GPS, HEK-293T) (PSI 1-6); higher = more stable
Details: c terminus: a fixed tail appended
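Note: lentivirally expressed fusions sorted by FACS into six bins by GFP to DsRed ratio, PSI derived from sequencing read proportions per bin multiplied by bin number.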

Protein stability index of substitutions, site by site:
H15: D 3.15 | P 2.6 | S 3.18 | G 3.07 | I 2.32 | R 2.74 | M 2.56
E10: L 2.27 | S 2.14 | N 2.8 | T 2.07 | Y 1.73 | H 2.23 | P 2.03
E5: S 2.66 | R 2.39 | Q 2.07 | K 2.2 | H 2.77 | Y 1.83 | C 1.32 | L 2.08 | V 1.92 | N 2.69
Q7: V 3.27 | A 3.21 | S 3.11 | H 3.23 | T 2.69 | G 2.42 | L 2.61 | F 2.73 | N 2.9
V12: G 3.1 | D 2.81 | W 3.26 | P 2.94 | Y 3.25 | E 3.34 | F 3.5 | S 3.03 | M 2.85
T14: E 2.93 | H 2.65 | R 2.73 | D 2.92
Y20: C 3.91 | I 2.62 | R 3.95
C23: G 3.56 | W 2.67 | D 4.04 | Q 4.39 | P 4.09
R19: H 3.24 | Q 3.29 | F 2.88 | N 3.54 | W 2.14 | E 3.74 | V 3.09
S17: H 3.2 | Q 2.97 | M 2.51 | T 2.15 | C 4.84 | W 1.52 | Y 2.89 | A 2.11
Q22: D 3.85 | G 2.29 | R 3.98 | W 2.49
N24: I 3.07 | P 3.02 | M 2.96 | Q 2.88 | G 3.05 | F 2.79
L2: Q 3.35 | W 2.58 | R 3.08 | Y 1.9 | D 3.37 | A 3.59 | C 3.52
R11: N 3.14 | Q 3.46 | L 3.11
L13: E 3.6 | I 3.55 | N 2.93 | W 2.7 | S 2.52 | P 3.19 | M 3.3 | H 3.6 | C 4.49 | R 4.15
F16: Y 2.99 | M 3.09 | T 3.91 | L 3.79 | H 4.05 | I 2.67 | R 2.21 | Q 4.78 | A 3.85
C21: G 4.23 | K 2.88 | Q 3.67
G4: A 3.3 | W 2.07 | C 2.49 | F 2.31 | S 2.92 | T 3.86 | D 3.24 | Y 2.06 | H 2.93
R18: G 4.12 | V 2.02 | H 3.96 | C 1.77 | I 2.27 | S 3.54 | M 2.14
T6: P 3.02 | H 3.15 | S 2.18 | N 2.21 | Q 2.97 | D 2.98
E8: N 2.46 | D 3.46 | S 2.39 | L 1.89 | W 1.65 | Q 3.54 | F 1.67 | C 2.17 | K 2.12 | I 2.69
P1: D 1.82 | A 1.96 | Q 2.81 | H 2.6 | N 2.97 | E 2.79 | Y 3.12 | K 2.25 | V 2.4
R9: D 3.79 | F 2.23 | L 2.41 | Q 2.18 | P 3.29
M3: K 3.13 | L 3.15 | H 3.22 | T 4.68 | W 2.79 | Y 2 | F 2.77 | S 2.97 | C 2.61 | P 2.72
